# Source: patent US20240309070A1 (ADMARE THERAPEUTICS SOCIETY, published 2024)
# Changes are numbered by the printed parent chain. Where two headings read alike, the source gives them in different places.
# B1: A048-H3L2 (antibody, V domains shown)
# VH: EVQLLESGGGLVQPGGSLRLSCAASGFSFSSSYYMCWVRQAPGKGLEWIACIYTSSGSAYYADSVKGRFTISRDNSKNTLYLQMNSLRAEDTAVYYCVRNAVGSSYYLYLWGQGTLVTVSS
# VL: AQVLTQSPSTLSASVGDRVTITCQASQSVAGNNYLSWYQQKPGKAPKLLIYSVSTLASGVPSRFSGSGSGTEFTLTISSLQPDDFATYYCQGYYNDGIWAFGQGTKVEIK
# B2: A048-H1L1 (antibody, V domains shown)
# VH: B1 VH with D63N, S64W, V65A
# VL: B1 VL with A1D, Q2I, V3Q, L4M
# B3: A048-H5L5 (antibody, V domains shown)
# VH: QVTLKESGPVLVKPTETLTLTCTASGFSFSSSYYMCWVRQPPGKALEWIACIYTSSGSAYYANWAKGRFTISRDTSKSQVVLTMTNMDPVDTATYFCVRNAVGSSYYLYLWGQGTLVTVSS
# VL: EQVLTQSPATLSLSPGERATLSCQASQSVAGNNYLSWYQQKPGQAPRLLIYSVSTLASGIPARFSGSGSGTDFTLTISSLEPEDFAVYYCQGYYNDGIWAFGQGTKLEIK
# Columns and labels:
# [1] = molecular target: T1, VV B5 monomer protein (Wyeth Vaccinia strain B5 with C-terminal AVI tag and HIS6 tag) (Vaccinia virus, Wyeth strain, UniProt O57254 18-279); assay: ELISA, B5 monomer coated
# T1 construct: also called B5 protein; VV B5 protein
# [2] = molecular target: T2, Western Reserve B5 on cells infected with VVddeGFP Western Reserve virus (Vaccinia virus, Western Reserve strain, UniProt Q01227 18-317); assay: flow cytometry, HT29 cells infected with WR VV
# T2 construct: also called VV B5; WR
# [3] = molecular target: T2, Western Reserve B5 on cells infected …; assay: flow cytometry, SKOV3 cells infected with WR VV
# [4] = molecular target: T1, VV B5 monomer protein (Wyeth Vaccinia …); assay: BLI (Octet), antibody on AHC sensor, B5 monomer analyte
# [5] = molecular target: T3, Copenhagen B5 on cells infected with VVCopenhagen (YFP) virus (Vaccinia virus, Copenhagen strain, UniProt P21115 18-317); assay: flow cytometry, HT29 cells infected with Copenhagen VV
# T3 construct: also called VV B5
# [6] = molecular target: T1, VV B5 monomer protein (Wyeth Vaccinia …); assay: BLI (Octet), antibody on AHC sensor, B5 monomer analyte; remark: listed apart in the source
Binder,EC50 [1],EC50 [2],EC50 [3],Kd [4],EC50 [5],Kd [6],koff [6],kon [6]
B1,0.0835 nM,1.32 nM,0.67 nM,3 nM,1.87 nM,3.83 nM,0.000397 s⁻¹,103000 M⁻¹ s⁻¹
B2,0.0862 nM,0.97 nM,1.03 nM,–,2.37 nM,9.96 nM,0.000763 s⁻¹,76600 M⁻¹ s⁻¹
B3,0.104 nM,2.28 nM,1.36 nM,–,2.39 nM,8.55 nM,0.000521 s⁻¹,60800 M⁻¹ s⁻¹
